Measurements taken from patent publication US9422541.

Target: T1, Recombinant C5a produced as an N-term His-tagged fusion (HT-C5a)
T1 chain: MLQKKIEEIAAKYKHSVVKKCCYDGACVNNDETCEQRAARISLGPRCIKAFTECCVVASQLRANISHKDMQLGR

B1: ScpA, bacterial C5a protease from Streptococcus pyogenes (protein)
chain: DANDLAPQAPAKTADTPATSKATIRDLNDPSQVKTLQEKAGKGAGTVVAVIDAGFDKNHEAWRLTDKTKARYQSKEDLEKAKKEHGITYGEWVNDKVAYYHDYSKDGKTAVDQEHGTHVSGILSGNAPSETKEPYRLEGAMPEAQLLLMRVEIVNGLADYARNYAQAIRDAVNLGAKVINMSFGNAALAYANLPDETKKAFDYAKSKGVSIVTSAGNDSSFGGKTRLPLADHPDYGVVGTPAAADSTLTVASYSPDKQLTETAMVKTDDQQDKEMPVLSTNRFEPNKAYDYAYANRGMKEDDFKDVKGKIALIERGDIDFKDKVANAKKAGAVGVLIYDNQDKGFPIELPNVDQMPAAFISRKDGLLLKDNPQKTITFNATPKVLPTASGTKLSRFSSWGLTADGNIKPDIAAPGQDILSSVANNKYAKLSGTSMSAPLVAGIMGLLQKQYETQYPDMTPSERLDLAKKVLMSSATALYDEDEKAYFSPRQQGAGAVDAKKASAATMYVTDKDNTSSKVHLNNVSDKFEVTVTVHNKSDKPQELYYQATVQTDKVDGKHFALAPKVLYEASWQKITIPANSSKQVTVPIDASRFSKDLLAQMKNGYFLEGFVRFKQDPTKEELMSIPYIGFRGDFGNLSAVEKPIYDSKDGSSYYHEANSDAKDQLDGDGLQFYALKNNFTALTTESNPWTIIKAVKEGVENIEDIESSEITETIFAGTFAKQDDDSHYYIHRHANGEPYAAISPNGDGNRDYVQFQGTFLRNAKNLVAEVLDKEGNVVWTSEVTEQVVKNYNNDLASTLGSTRFEKTRWDGKDKDGKVVANGTYTYRVRYTPISSGAKEQHTDFDVIVDNTTPEVATSATFSTEDRRLTLASKPKTSQPVYRERIAYTYMDEDLPTTEYISPNEDGTFTLPEEAETMEGATVPLKMSDFTYVVEDMAGNITYTPVTKLLEGHS
Q: For B1, which “C5a-ase activity (SDS-PAGE of C5a treated with ScpA; 42 nM ScpA with 37 µM HT-C5a, 30 min at 20° C.)” value is on record?
A: Its value is “the ScpA cleaved C5a at a single site”.

Q: And the “mass loss of cleaved HT-C5a by MALDI-TOF MS” value?
A: Its value is “a loss of 830 Da, consistent with the removal of seven residues from the C terminal”.
